# Assay results from the RNAGym collection of RNA variant scans (doi:10.7554/elife.80360).
# B1: Hairpin Ribozyme (parent)
# chain: GUCCUCUUUCACGUGCGCGUGAAAGAGAGAAGUGAACCAGAGAAACACACGUUGUGGUAUAUUACCUGGUA
# Variants of: B1
# Assay: self-cleavage, relative activity (ratio to wild type); higher = more cleavage; co-transcriptional
row,Variant,self-cleavage
1,GUCCUCUUUCACGUGCUCGUGAAAGAGAGAAGUGAACCAGAGAAACACACGUUGUGGUCUAUUACCUGGUA [G17U A59C],0.0796
2,GUCCUCUUUCACGUGCUCGUGAAAGAGAGAAGUGAACCAGAGAAACACACGUUGUGGUAUAUUACCUGGUA [G17U],0.961
3,GUCCUCUUUCACGUGCUCGUGAAAGAGAGAAGUGAACCAGAGAAACACACGUUGUGGUAUAUGACCUGGUA [G17U U63G],0.0762
4,GUCCUCUUUCACGUGCUCGUGAAAGAGAGAAGUGAACCAGAGAAACACACGUUGUGGUAUAUCACCUGGUA [G17U U63C],0.164
5,GUCCUCUUUCACGUGCUCGUGAAAGAGAGAAGUGAACCAGAGAAACACACGUCGUGGUAUAUUACCUGGUA [G17U U53C],0.828
6,GUCCUCUUUCACGUGCUCGUUAAAGAGAGAAGUGAACCAGAGAAACACACGUUGUGGUAUAUUACCUGGUA [G17U G21U],0.53
7,GUCCUCUUUCACGUGCUCGUGAAAGAGAGAAGUGAACCAGAGAAACACACGUUGUGGUAAAUUACCUGGUA [G17U U60A],0.738
8,GUCCUCUUUCACGUGCCCGUGAAAGAGAGAAGUGAACCAGAGAAACACACGUUGUGGUAUAUAACCUGGUA [G17C U63A],0.193
9,GUCCUCUUUCACGUGCUCGUGAAAGAGAGAAGUGAACCAGAGAAACACACGUUGUGGUAUAUUACCGGGUA [G17U U67G],0.278
10,GUCCUCUUUCACGUGCUCGUGAAAGAGAGAAGUGAACCAGAGAAACACACGUUGUGGUAUAUUACCAGGUA [G17U U67A],0.249
11,GUCCUCUUUCACGUGCUCGUGAAAGAGAGAAGUGAACCAGAAAAACACACGUUGUGGUAUAUUACCUGGUA [G17U G42A],0.152
12,GUCCUCUUUCACGUGCUCGUGAAAGAGAGAAGUGAACCAGAUAAACACACGUUGUGGUAUAUUACCUGGUA [G17U G42U],0.343
13,GUCCUCUUUCACGUGCGAGUGGAAGAGAGAAGUGAACCAGAGAAACACACGUUGUGGUAUAUUACCUGGUA [C18A A22G],0.857
14,GUCCUCUUUCACGUGCUCGUGAAAGAGAGAAGUGAACCAGAGAAACACACGUUGUGGUAUAUUACCUGGUG [G17U A71G],1.1
15,GUCCUCUUUCACGUGCCCGUGAAAGAGAGAAGUGAACCAGAGAAACACACGUUGUGGUAGAUUACCUGGUA [G17C U60G],0.425
16,GUCCUCUUUCACGUGCUCGUGAAAGAGAGAAGUGAACCAGAGAAACACGCGUUGUGGUAUAUUACCUGGUA [G17U A49G],0.818
17,GUCCUCUUUCACGUGCUCGUGAAAGAGAGAAGUGAACCAGAGAAACACUCGUUGUGGUAUAUUACCUGGUA [G17U A49U],0.195
18,GUCCUCUUUCACGUGCUCGUGAAGGAGAGAAGUGAACCAGAGAAACACACGUUGUGGUAUAUUACCUGGUA [G17U A24G],0.766
19,GUCCUCUUUCACGUGCGAGUGAAAGAGAGAAGUGAACCAGAGAAACCCACGUUGUGGUAUAUUACCUGGUA [C18A A47C],0.424
20,GUCCUCUUUCACGUGCUCGUGAAAGAGAGAAGUGAACCAGAGAAACACACCUUGUGGUAUAUUACCUGGUA [G17U G51C],1.17
21,GUCCUCUUUCACGUGCUCGUGAAAGAGAGAAGUGAACCAGAGAAACACACAUUGUGGUAUAUUACCUGGUA [G17U G51A],0.946
22,GUCCUCUUUCACGUGCUCGUGAAAGAGAGAAGUGAACCAGAGAAACACACGUUCUGGUAUAUUACCUGGUA [G17U G54C],0.413
23,GUCCUCUUUCACGUGCUCGUGAAAGAGAGAAGCGAACCAGAGAAACACACGUUGUGGUAUAUUACCUGGUA [G17U U33C],0.0633
24,GUCCUCUUUCACGUGCUCGUGAAAGAGAGAAGGGAACCAGAGAAACACACGUUGUGGUAUAUUACCUGGUA [G17U U33G],0.186
25,GUCCUCUUUCACGUGCGAGUGAAAGAGAGAAGUGAACCAGCGAAACACACGUUGUGGUAUAUUACCUGGUA [C18A A41C],1.21
26,GUCCUCUUUCACGUGCCCGUGAAAGAGAGAAGUGAACCAGAGAAACACACGUUGUGGUAUAUUACCUGGCA [G17C U70C],0.866

row,Variant,self-cleavage
1,GUCCUCUUUCACGUGCCCGUGAAAGAGAGAAGUGAACCAGAGAAACACACGUUGUGGUAUAUUACCUGGAA [G17C U70A],0.862
2,GUCCUCUUUCACGUGCCCGUGAAAGAGAGAAGUGAACCAGAGAAACACACGUUGUGGUAUAUUACCUGGGA [G17C U70G],0.807
3,GUCCUCUUUCACGUGCUCGUGAAAGAGAGAAGUGUACCAGAGAAACACACGUUGUGGUAUAUUACCUGGUA [G17U A35U],0.557
4,GUCCUCUUUCACGUGCUCGUGAAAGAGAGAAGUGAACUAGAGAAACACACGUUGUGGUAUAUUACCUGGUA [G17U C38U],0.519
5,GUCCUCUUUCACGUGCUCGUGAAAGAGAGAAGUGAACCAGAGAAACACACGUUGUGGUAUAUUAUCUGGUA [G17U C65U],0.383
6,GUCCUCUUUCACGUGCUCGUGAAAGAGAGAAGUGAACCAGAGAAACACACGUUGUGGUAUAUUACAUGGUA [G17U C66A],0.233
7,GUCCUCUUUCACGUGCUCGUGAAAGAGAGAAGUGAACCAGAGAAACACACGUUGUGGUAUAUUACUUGGUA [G17U C66U],0.537
8,GUCCUCUUUCACGUGCUCGUGAAAGAGAGAAUUGAACCAGAGAAACACACGUUGUGGUAUAUUACCUGGUA [G17U G32U],0.121
9,GUCCUCUUUCACGUGCUCGUGAAAGAGAGAACUGAACCAGAGAAACACACGUUGUGGUAUAUUACCUGGUA [G17U G32C],0.137
10,GUCCUCUUUCACGUGCUCGUGAAAGAGAGAAGUAAACCAGAGAAACACACGUUGUGGUAUAUUACCUGGUA [G17U G34A],1.24
11,GUCCUCUUUCACGUGCUCGUGAAAGAGAGAAGUGAACCAGAGAAACAAACGUUGUGGUAUAUUACCUGGUA [G17U C48A],0.106
12,GUCCUCUUUCACGUGCUCGUGAAAGAGAGAAGUGAACCAGAGAAACACAGGUUGUGGUAUAUUACCUGGUA [G17U C50G],0.192
13,GUCCUCUUUCACGUGCUCGUGAAAGAGAGAAGUGAACCAGAGAAACACACGUUGUGGUAUUUUACCUGGUA [G17U A61U],0.158
14,GUCCUCUUUCACGUGCUCGUGAAAGAGAGAAGUGAACCAGAGAAACACACGUUGUGGUAUCUUACCUGGUA [G17U A61C],0.161
15,GUCCUCUUUCACGUGCUCGUGAAAGAGAGAAGUGAACCAGAGAAACGCACGUUGUGGUAUAUUACCUGGUA [G17U A47G],0.15
16,GUCCUCUUUCACGUGCUCGUGAAAGAGAGAAGUGAACCAGAGAAACACACGUUGCGGUAUAUUACCUGGUA [G17U U55C],0.301
17,GUCCUCUUUCACGUGCUCGUGAAAUAGAGAAGUGAACCAGAGAAACACACGUUGUGGUAUAUUACCUGGUA [G17U G25U],0.637
18,GUCCUCUUUCACGUGCUCGUGAAAGAGAGAAGUGAACCAGUGAAACACACGUUGUGGUAUAUUACCUGGUA [G17U A41U],1.51
19,GUCCUCUUUCACGUGCGAGUGAAAGAGAGAAGUGAACCAGAGAGACACACGUUGUGGUAUAUUACCUGGUA [C18A A44G],0.199
20,GUCCUCUUUCACGUGCGAGUGAAAGAGAGAAGUGAACCAGAGAUACACACGUUGUGGUAUAUUACCUGGUA [C18A A44U],0.105
21,GUCCUCUUUCACGUGCCCGUGAAAGAGAGAAGUGAACCAGAGAAACACACGUUGUGGUAUACUACCUGGUA [G17C U62C],0.233
22,GUCCUCUUUCACGUGCUCCUGAAAGAGAGAAGUGAACCAGAGAAACACACGUUGUGGUAUAUUACCUGGUA [G17U G19C],0.846
23,GUCCUCUUUCACGUGCGAGUGAAAGAGAGAAGUGAACCAGAGAAACACGCGUUGUGGUAUAUUACCUGGUA [C18A A49G],0.54
24,GUCCUCUUUCACGUGCGAGUGAAAGAGAGAAGUGAACCAGAGAAACACUCGUUGUGGUAUAUUACCUGGUA [C18A A49U],0.264
25,GUCCUCUUUCACGUGCGAGUGAAUGAGAGAAGUGAACCAGAGAAACACACGUUGUGGUAUAUUACCUGGUA [C18A A24U],0.86
26,GUCCUCUUUCACGUGCGAGUGAACGAGAGAAGUGAACCAGAGAAACACACGUUGUGGUAUAUUACCUGGUA [C18A A24C],0.994

row,Variant,self-cleavage
1,GUCCUCUUUCACGUGCUCGUGAAAGAGAGAAGUGAACCAUAGAAACACACGUUGUGGUAUAUUACCUGGUA [G17U G40U],0.181
2,GUCCUCUUUCACGUGCGAGUGAAAGAGAGAAGUGAACCAGAGAAUCACACGUUGUGGUAUAUUACCUGGUA [C18A A45U],0.11
3,GUCCUCUUUCACGUGCUCGUGAAAGAGAGAAGUGAACCAGAGAAACACACGUUGUGGUAUAUUACCUUGUA [G17U G68U],0.207
4,GUCCUCUUUCACGUGCUCGUGAAAGAGAGAAGUGAACCAGAGAAACACACGUUGUGGUAUAUUACCUCGUA [G17U G68C],0.162
5,GUCCUCUUUCACGUGCCCGUGAAAGAGAGAAGUGAACCAGAGAAACACACGUUGUGGCAUAUUACCUGGUA [G17C U58C],0.825
6,GUCCUCUUUCACGUGCUCGUGAAAGAGAGAAGUGAACCAGAGAAACACACGUUGUGGUAUAUUGCCUGGUA [G17U A64G],0.624
7,GUCCUCUUUCACGUGCUCGUGAAAGAGAGAAGUGAACCAGAGAAACACACGUUGUGGUAUAUUACCUGUUA [G17U G69U],0.258
8,GUCCUCUUUCACGUGCUCGUGAAAGAGAGAAGUGAACCAGAGAAACACACGUUGUGGUAUAUUACCUGGAA [G17U U70A],0.95
9,GUCCUCUUUCACGUGCUCGUGAAAGGGAGAAGUGAACCAGAGAAACACACGUUGUGGUAUAUUACCUGGUA [G17U A26G],0.812
10,GUCCUCUUUCACGUGCGAGUGAAAGAGAGAAGUGAACCAGAGGAACACACGUUGUGGUAUAUUACCUGGUA [C18A A43G],0.085
11,GUCCUCUUUCACGUGCUCGUGAAAGAGAGAAGUGAACCUGAGAAACACACGUUGUGGUAUAUUACCUGGUA [G17U A39U],0.337
12,GUCCUCUUUCACGUGCUCGUGAAAGAGAGAAGUGAACCCGAGAAACACACGUUGUGGUAUAUUACCUGGUA [G17U A39C],0.479
13,GUCCUCUUUCACGUGCUCGUGAUAGAGAGAAGUGAACCAGAGAAACACACGUUGUGGUAUAUUACCUGGUA [G17U A23U],0.811
14,GUCCUCUUUCACGUGCUCGUGAAAGAGAGAAGUGAUCCAGAGAAACACACGUUGUGGUAUAUUACCUGGUA [G17U A36U],0.483
15,GUCCUCUUUCACGUGCUCGUGAAAGAGAGUAGUGAACCAGAGAAACACACGUUGUGGUAUAUUACCUGGUA [G17U A30U],0.116
16,GUCCUCUUUCACGUGCUCGUGAAAGAGAGCAGUGAACCAGAGAAACACACGUUGUGGUAUAUUACCUGGUA [G17U A30C],0.176
17,GUCCUCUUUCACGUGCUCGUGAAAGAGGGAAGUGAACCAGAGAAACACACGUUGUGGUAUAUUACCUGGUA [G17U A28G],1.02
18,GUCCUCUUUCACGUGCGAGUGACAGAGAGAAGUGAACCAGAGAAACACACGUUGUGGUAUAUUACCUGGUA [C18A A23C],0.863
19,GUCCUCUUUCACGUGCGAGUGAUAGAGAGAAGUGAACCAGAGAAACACACGUUGUGGUAUAUUACCUGGUA [C18A A23U],0.923
20,GUCCUCUUUCACGUGCUCGUGUAAGAGAGAAGUGAACCAGAGAAACACACGUUGUGGUAUAUUACCUGGUA [G17U A22U],0.793
21,GUCCUCUUUCACGUGCCCGUGAAAGAGAGAAGUGAACCAGAGAAACACACGUUGUGGUAUAUUACCAGGUA [G17C U67A],0.227
22,GUCCUCUUUCACGUGCGAGUGAAAGAGAGCAGUGAACCAGAGAAACACACGUUGUGGUAUAUUACCUGGUA [C18A A30C],0.166
23,GUCCUCUUUCACGUGCUCGUGAAAGAGAGAAGUGAACCAGAGAAAGACACGUUGUGGUAUAUUACCUGGUA [G17U C46G],0.192
24,GUCCUCUUUCACGUGCUCGUGAAAGAGAGAAGUGAACCAGAGAAAAACACGUUGUGGUAUAUUACCUGGUA [G17U C46A],0.152
